According to patent publication US20210230599, “STEM-LOOP COMPOSITIONS AND METHODS FOR INHIBITING INTERLEUKIN-8” (VITRISA THERAPEUTICS, INC., published 2021):

Tests used:
[1] = molecular target: T1, Interleukin-8 (IL8, CXCL8), C-terminal His-tagged (Homo sapiens, UniProt P10145 SEQ:1-72); assay: TR-FRET, 5 nM IL8, protein-limited; bead flow 18 nM; details: tags: C-terminal 6xHis (Sino Biological); label: Alexa Fluor 647
Protocol: (§1) Aptamers were synthesized and labeled with ALEXA FLUOR® 647, and binding to IL8 was quantified by Time-Resolved Fluorescence Resonance Energy Transfer (TR-FRET). Briefly, 2-fold dilutions of thermally equilibrated aptamers were made in TR-FRET Buffer (50 mM MOPS, pH 7.4, 125 mM NaCl, 5 mM KCl, 50 μM CHAPS, 0.1 mg/mL BSA, 1 mM CaCl₂ and 1 mM MgCl₂). […] of aptamer or control solution was added to 10 μL of 15 nM C-His-tagged-IL8 (Sino Biological) in a black wall half-area plate (Corning). In the same plate, 10 μl of aptamer solution was added to 10 μl of TR-FRET buffer alone to use for background subtraction. 10 μl of 15 nM anti-His-Eu (Perkin Elmer) was added to each well, the plate was covered with a plate seal and subsequently incubated in the dark for 1 hour at room temperature. The plate was read on a Biotek CYTATION™ 5 plate reader. Samples were excited at 330 nm and fluorescent values were collected at 665 nm. […] Apparent Kd values obtained for the fits are calculated as the concentration of half-maximal binding and shown in Table 10, and fit curves as FIG. 6. […] It is also possible that differences may arise due to TR-FRET being a homogenous solution binding assay, while bead binding has immobilized ligand and is non-homogenous, so bound aptamers may dissociate during analysis resulting in higher calculated Kd values.

[2] = molecular target: T1, Interleukin-8 (IL8, CXCL8), C-terminal …; assay: TR-FRET, 5 nM IL8, protein-limited; details: tags: C-terminal 6xHis (Sino Biological); label: Alexa Fluor 647
[3] = molecular target: T1, Interleukin-8 (IL8, CXCL8), C-terminal …; assay: TR-FRET; GAG-site binder, displaced by heparan sulfate IC50 9 uM; details: tags: C-terminal 6xHis (Sino Biological); label: Alexa Fluor 647
Source text: Differences between these TR-FRET values (Table 10) and those from the bead binding assay (Table 9) may be due to a different limiting concentration of IL8. […] It is also possible that differences may arise due to TR-FRET being a homogenous solution binding assay, while bead binding has immobilized ligand and is non-homogenous, so bound aptamers may dissociate during analysis resulting in higher calculated Kd values.
Aptamer 1 (C6NH₂-[…]-idT, where C and U are 2′F, A and G are 2′OH; C6NH₂ is a hexylamino linker; and idT is a 3′ inverted deoxythymidine residue (SEQ ID NO: 75 with modifications)) was used as a positive control for an aptamer that binds to the GAG binding site. Aptamers 1, 3, 6, 8 and 11 were labeled with ALEXAFLUOR® 647 as described in Example 3. […] Briefly, 2-fold dilutions of heparan sulfate (Sigma Aldrich) were made in TR-FRET Buffer (50 mM MOPS, pH 7.4, 125 mM NaCl, 5 mM KCl, 50 μM CHAPS, 0.1 mg/mL BSA, 1 mM CaCl₂ and 1 mM MgCl₂). […] heparan sulfate or control solution were added to […] a mixture of 10 nM C-His-tagged-IL8 (Sino Biological), 5 nM anti-His-Eu (Perkin Elmer), and 30 nM AlexaFluor® 647-labeled aptamer in TR-FRET in a black low volume 384-well plate (Greiner). The plate was covered with a plate seal and subsequently incubated in the dark for 1 hour at room temperature. The plate was read on a Biotek CYTATION™ 5 plate reader. […]

[4] = molecular target: T1, Interleukin-8 (IL8, CXCL8), C-terminal …; assay: competition; competition TR-FRET; details: tags: C-terminal 6xHis (Sino Biological); stem-loop
[5] = molecular target: T1, Interleukin-8 (IL8, CXCL8), C-terminal …; assay: TR-FRET, 500 pM IL8; Table 10 gives 2 nM; bead flow 13 nM; details: tags: C-terminal 6xHis (Sino Biological); label: Alexa Fluor 647; stem-loop (3 stems, 4 loops)
Protocol: Under these assay conditions, the ability to measure the affinity accurately is limited by the input IL8 protein concentration, and the apparent Kd under these protein-limiting conditions was determined to be 8 nM.

[6] = molecular target: T1, Interleukin-8 (IL8, CXCL8), C-terminal …; assay: competition; competition TR-FRET; S2 disrupted; details: tags: C-terminal 6xHis (Sino Biological)
Protocol: (§2) To better understand the sequence requirements and to confirm the stem structures of members of the Aptamer 3 family as determined from sequence covariation analysis from both the primary and secondary (degenerate) selections, a series of variants which included mutations and deletions to the predicted stems were synthesized and screened (Table 24). Activity of each of these variants were tested using a time resolved competition TR-FRET assay in which the labeled parent Aptamer 3 was competed with increasing concentrations of unlabeled variants for binding to IL8 (FIG. 14). Briefly, 2-fold dilutions of thermally equilibrated aptamers were made in TR-FRET Buffer (50 mM MOPS, pH 7.4, 125 mM NaCl, 5 mM KCl, 50 μM CHAPS, 0.1 mg/mL BSA, 1 mM CaCl₂, and 1 mM MgCl₂). 5 μL of aptamer or control solution was added to 5 μl mix of 10 nM C-terminal His-tagged-IL8, 60 nM ALEXA FLUOR® 647-labeled Aptamer, and 5 nM anti-His-Eu (Perkin Elmer) in a black wall low volume 384 well plate (Greiner). For control, 5 μl of 1000-fold excess of unlabeled parent aptamer or 5 μl TR-FRET buffer alone was added to the mix of ALEXA FLUOR® 647-labeled aptamer, His-IL8, and anti-His-Eu. The plate was covered with a plate seal and subsequently incubated in the dark for 1 hour at room temperature. The plate was read on a Biotek CYTATION™ 5 plate reader. […]

[7] = molecular target: T1, Interleukin-8 (IL8, CXCL8), C-terminal …; assay: TR-FRET, 1 mM Ca, 1 mM Mg, room temperature; details: tags: C-terminal 6xHis (Sino Biological); label: Alexa Fluor 647
Protocol: as §1

[8] = molecular target: T1, Interleukin-8 (IL8, CXCL8), C-terminal …; assay: flow; bead-immobilized IL8, 37 C; details: tags: C-terminal 6xHis (Sino Biological); label: Alexa Fluor 647
Protocol: (§3) Chemically synthesized aptamers (Table 8) were labeled with ALEXA FLUOR® 647 and were used to test binding to IL8 in a bead based assay using flow cytometry. In brief, fluorescently labeled aptamers were heated at 90° C. for 3 minutes in SB1T and were allowed to cool at room temperature for 5 minutes, after which they were incubated with c-his-IL8, immobilized on DYNABEADS® His-Tag Isolation and Pulldown beads in SB1T buffer containing 0.1% BSA, 1 μg/μl ssDNA and 1 μg/μl heparin sulphate at two different aptamer concentrations: 10 nM and 100 nM. Following incubation for 30 minutes at 37° C., the beads were washed three times with SB1T, re-suspended in SB1T buffer and analyzed by flow cytometry. […] Negligible or complete lack of binding seen in cases of some aptamers (e.g., Aptamers 4, 9, 10, and 16) could be due to the removal of the constant regions. No binding was observed when similar experiments were performed in the absence of protein (data not shown).
Flow cytometry was used to measure the apparent binding affinity for Aptamer 2, Aptamer 3, Aptamer 5, Aptamer 6, Aptamer 8, Aptamer 11, Aptamer 12, Aptamer 13, Aptamer 14, Aptamer 20, Aptamer 22, Aptamer 23, and Aptamer 25 using bead immobilized c-his-IL8. […] Following incubation for 30 minutes at 37° C., the beads were washed and fluorescence was measured by flow cytometry. […]

[9] = molecular target: T1, Interleukin-8 (IL8, CXCL8), C-terminal …; assay: TR-FRET, 5 nM IL8, protein-limited; bead flow 13 nM; details: tags: C-terminal 6xHis (Sino Biological); label: Alexa Fluor 647
Protocol: as §1

[10] = molecular target: T1, Interleukin-8 (IL8, CXCL8), C-terminal …; assay: competition; competition TR-FRET; S3 mutant; details: tags: C-terminal 6xHis (Sino Biological)
Protocol: as §2

[11] = molecular target: T1, Interleukin-8 (IL8, CXCL8), C-terminal …; assay: competition; competition TR-FRET; S3 extended; details: tags: C-terminal 6xHis (Sino Biological)
Protocol: as §2

[12] = molecular target: T1, Interleukin-8 (IL8, CXCL8), C-terminal …; assay: flow; appreciable binding, bead-immobilized IL8, 10 and 100 nM aptamer; details: tags: C-terminal 6xHis (Sino Biological); label: Alexa Fluor 647
Protocol: as §3

UCAGGCUGAAAAGUGAGCUAUAAUGUCCUGAUUGAU (ssRNA, 2'-F G, 2'-OMe A/C/U, 5' C6NH2, 3' idT) [Aptamer 6]
Kd [1]: 2 nM

UUAUUGCGGCCCGAUUUACCGAAUUUGCCGUCCGGU (ssRNA, 2'-F G, 2'-OMe A/C/U, 5' C6NH2, 3' idT) [Aptamer 7]
Kd [2]: 2 nM

GGGGGCUUAUCAUUCCAUUUAGUGUUAUGAUAACC (ssRNA, 2'-F C and U, 2'-OH A and G, 5' C6NH2, 3' idT) [Aptamer 1]
Kd [3]: 3 nM

GCGACGGUAGAUUACGGGUAGAGUGACCGCGC (ssRNA, 2'-F G, 2'-OMe A/C/U, 5' C6NH2, 3' idT) [Aptamer 42]
binding signal [4]: ~1.4 fold worse than Aptamer 3

UGAUGACGGUAGAUUACGGGUAGAGUGACCGCAUCU (ssRNA, 2'-F G, 2'-OMe A/C/U, 5' C6NH2, 3' idT) [Aptamer 3]
Kd [5]: 0.214 nM

UGAUGACCCUAGAUUACGGGUAGAGUGACCGCAUCU (ssRNA, 2'-F G, 2'-OMe A/C/U, 5' C6NH2, 3' idT) [Aptamer 188]
binding signal [6]: > 10 fold worse than Aptamer 3

UGUCGCCCUACGUAAACCGCUAUUUGCGACUGCGGU (ssRNA, 2'-F G, 2'-OMe A/C/U, 5' C6NH2, 3' idT) [Aptamer 19]
Kd [7]: 4 nM

UGACUGCGGUCGCAAGUUACGGAUUUGCCGCCCCGU (ssRNA, 2'-F G, 2'-OMe A/C/U, 5' C6NH2, 3' idT) [Aptamer 20]
Kd [8]: 15 nM

UCCGGUUGCUGAGAUGUGAGAUUAAUGUCCACCGUU (ssRNA, 2'-F G, 2'-OMe A/C/U, 5' C6NH2, 3' idT) [Aptamer 11]
Kd [9]: 2 nM

GGCGACGGUAGACUACGGGUAGAGUGACCGCGCC (ssRNA, 2'-F G, 2'-OMe A/C/U, 5' C6NH2, 3' idT) [Aptamer 89]
binding signal [10]: > 10 fold worse than Aptamer 3

GGCGACGGUAGAUCACGGGUAGGGUGACCGCGCC (ssRNA, 2'-F G, 2'-OMe A/C/U, 5' C6NH2, 3' idT) [Aptamer 90]
binding signal [11]: > 10 fold worse than Aptamer 3

UCAUGGGUUGCCAACCGGCCGUGUAUGUACGUACAU (ssRNA, 2'-F G, 2'-OMe A/C/U, 5' C6NH2, 3' idT) [Aptamer 25]
binding result [12]: binds
